# B1: Protein TIFY 7 (Arabidopsis thaliana (Mouse-ear cress)), Q8W4J8 (parent)
# chain: MERDFLGLSDKQYLSNNVKHEVNDDAVEERGLSTKAAREWGKSKVFATSSFMPSSDFQEAKAFPGAYQWGSVSAANVFRRCQFGGAFQNATPLLLGGSVPLPTHPSLVPRVASSGSSPQLTIFYGGTISVFNDISPDKAQAIMLCAGNGLKGETGDSKPVREAERMYGKQIHNTAATSSSSATHTDNFSRCRDTPVAATNAMSMIESFNAAPRNMIPSVPQARKASLARFLEKRKERLMSAMPYKKMLLDLSTGESSGMNYSSTSPT
# partner: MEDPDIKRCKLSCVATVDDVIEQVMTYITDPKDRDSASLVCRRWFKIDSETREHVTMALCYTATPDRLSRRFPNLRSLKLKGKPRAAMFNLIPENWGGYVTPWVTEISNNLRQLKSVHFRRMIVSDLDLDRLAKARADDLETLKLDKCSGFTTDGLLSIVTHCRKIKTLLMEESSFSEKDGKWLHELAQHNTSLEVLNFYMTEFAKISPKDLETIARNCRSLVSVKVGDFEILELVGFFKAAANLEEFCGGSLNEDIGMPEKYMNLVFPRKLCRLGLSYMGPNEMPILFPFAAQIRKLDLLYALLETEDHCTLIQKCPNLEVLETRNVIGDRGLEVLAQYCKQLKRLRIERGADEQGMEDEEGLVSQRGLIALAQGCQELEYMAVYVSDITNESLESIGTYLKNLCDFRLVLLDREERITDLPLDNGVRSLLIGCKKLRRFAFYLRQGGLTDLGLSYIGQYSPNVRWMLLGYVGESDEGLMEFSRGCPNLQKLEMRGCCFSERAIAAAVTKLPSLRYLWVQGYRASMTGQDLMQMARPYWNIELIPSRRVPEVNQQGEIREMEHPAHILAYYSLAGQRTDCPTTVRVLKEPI
# B2: Protein TIFY 7 (Arabidopsis thaliana (Mouse-ear cress)), Q8W4J8 (parent)
# chain: B1 chain
# How the values were obtained:
# coi1_arath COI1, O04197 = variants of: B1; details: with coi1_arath COI1, O04197
# myc3_arath MYC3, Q9FIP9 = variants of: B2; details: with myc3_arath MYC3, Q9FIP9
# myc2_arath MYC2, Q39204 = variants of: B2; details: with myc2_arath MYC2, Q39204
# myc4_arath MYC4, O49687 = variants of: B2; details: with myc4_arath MYC4, O49687
# Chain of myc4_arath MYC4, O49687 (O49687 whole entry): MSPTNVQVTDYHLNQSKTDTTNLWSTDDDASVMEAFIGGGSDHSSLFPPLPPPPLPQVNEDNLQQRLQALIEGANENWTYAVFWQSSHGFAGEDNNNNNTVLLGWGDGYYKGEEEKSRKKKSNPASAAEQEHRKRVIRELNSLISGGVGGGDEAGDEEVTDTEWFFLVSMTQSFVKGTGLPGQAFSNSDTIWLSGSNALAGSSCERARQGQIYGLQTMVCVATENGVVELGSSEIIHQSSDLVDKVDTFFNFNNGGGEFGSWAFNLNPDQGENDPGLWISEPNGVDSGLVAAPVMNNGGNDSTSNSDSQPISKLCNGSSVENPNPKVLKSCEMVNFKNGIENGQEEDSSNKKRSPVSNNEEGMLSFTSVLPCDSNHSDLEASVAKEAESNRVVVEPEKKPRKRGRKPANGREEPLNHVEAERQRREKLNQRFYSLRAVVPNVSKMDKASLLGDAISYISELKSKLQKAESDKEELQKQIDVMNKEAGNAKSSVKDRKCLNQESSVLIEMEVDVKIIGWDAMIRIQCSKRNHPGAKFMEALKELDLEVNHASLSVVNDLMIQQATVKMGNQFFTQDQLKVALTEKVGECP
# Chain of myc2_arath MYC2, Q39204 (Q39204 whole entry): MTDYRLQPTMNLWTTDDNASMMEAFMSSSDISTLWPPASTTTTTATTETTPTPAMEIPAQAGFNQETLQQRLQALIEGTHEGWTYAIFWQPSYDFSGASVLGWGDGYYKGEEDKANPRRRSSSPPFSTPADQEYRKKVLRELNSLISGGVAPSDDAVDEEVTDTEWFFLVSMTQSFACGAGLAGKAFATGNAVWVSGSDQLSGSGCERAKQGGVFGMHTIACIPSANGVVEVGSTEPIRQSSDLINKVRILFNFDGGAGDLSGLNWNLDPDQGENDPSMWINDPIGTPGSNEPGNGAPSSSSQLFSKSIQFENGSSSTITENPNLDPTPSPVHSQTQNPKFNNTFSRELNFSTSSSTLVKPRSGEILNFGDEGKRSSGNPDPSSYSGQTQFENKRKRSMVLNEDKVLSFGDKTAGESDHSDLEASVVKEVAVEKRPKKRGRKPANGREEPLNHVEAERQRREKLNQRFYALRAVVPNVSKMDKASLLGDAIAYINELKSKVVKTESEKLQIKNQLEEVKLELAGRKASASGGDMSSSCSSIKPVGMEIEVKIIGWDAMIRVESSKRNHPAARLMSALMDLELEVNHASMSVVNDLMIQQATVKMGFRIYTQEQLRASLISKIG
# Chain of myc3_arath MYC3, Q9FIP9 (Q9FIP9 whole entry): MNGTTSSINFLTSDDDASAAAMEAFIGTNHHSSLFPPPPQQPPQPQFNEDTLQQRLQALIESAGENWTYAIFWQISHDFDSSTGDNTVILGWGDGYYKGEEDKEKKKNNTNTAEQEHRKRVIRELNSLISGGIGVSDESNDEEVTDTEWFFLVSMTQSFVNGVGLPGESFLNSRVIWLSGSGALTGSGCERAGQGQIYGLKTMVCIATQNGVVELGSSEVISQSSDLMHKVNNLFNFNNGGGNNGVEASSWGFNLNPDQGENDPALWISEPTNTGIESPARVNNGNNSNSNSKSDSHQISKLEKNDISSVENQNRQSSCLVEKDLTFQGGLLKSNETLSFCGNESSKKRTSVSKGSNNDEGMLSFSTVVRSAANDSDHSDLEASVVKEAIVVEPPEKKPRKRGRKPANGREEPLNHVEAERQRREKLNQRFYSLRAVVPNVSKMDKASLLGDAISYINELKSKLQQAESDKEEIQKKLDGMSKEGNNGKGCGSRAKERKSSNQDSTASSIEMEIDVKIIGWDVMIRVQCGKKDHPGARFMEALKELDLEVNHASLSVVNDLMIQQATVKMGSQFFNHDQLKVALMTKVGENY
Variant,"effect of a mutation on the interaction (coi1_arath COI1, O04197)","effect of a mutation on the interaction (myc3_arath MYC3, Q9FIP9)","effect of a mutation on the interaction (myc2_arath MYC2, Q39204)","effect of a mutation on the interaction (myc4_arath MYC4, O49687)"
L231A,decreasing interaction strength,–,–,–
R223A;K224A,disrupting interaction strength,–,–,–
F230A,disrupting interaction strength,–,–,–
R234A,disrupting interaction strength,–,–,–
S218A;V219A;P220A;Q221A,disrupting interaction strength,–,–,–
L231A,–,disrupting interaction strength,decreasing interaction strength,decreasing interaction strength
F230A,–,disrupting interaction strength,disrupting interaction strength,disrupting interaction strength
L227A,–,disrupting interaction strength,disrupting interaction strength,disrupting interaction strength
R234A,–,disrupting interaction strength,disrupting interaction strength,disrupting interaction strength

# From IntAct's records for PubMed 26258305
